From article PMC10689493 (Nature Communications, 2023)

Legend:
[1] = target: SARS-CoV-1 Spike protein, 2 P (SARS-CoV-1, isolate , UniProt P59594, stabilised); test: ELISA; conditions: both partners purified
MERS Spike protein, 2 P = MERS Spike protein, 2 P (MERS-CoV, isolate  (entry: …, UniProt K9N5Q8, stabilised)); test: ELISA; conditions: both partners purified

Binder	binding result [1]	binding result (MERS Spike protein, 2 P)
CC40.8 mAb (antibody, V domains shown, IgG; source: Expi293F, transfected, purified (Protein A)) VH: EVQLLESGGGLVQPGGSLRLSCAASGFTFSSYVMTWARQAPGKGLEWVSAISGTGYTYYADSVKGRFTVSRDNSKNTLFLQMSSLRAEDTAVYYCAITMAPVVWGQGTTVTVSS VL: SYELTQPPSVSVSPGQTARITCSGDALPKRYAYWYQQKSGQAPILVIYEDKKRPSGIPERLSGSKSGTVATLTISGAQVEDEADYYCYSTDSSGNHAVFGGGTQLTVL	binds	
S2P6 mAb (antibody, V domains shown, IgG; IGHV1-46/IGKV3-20; source: Expi293F, transfected, purified (Protein A)) VH: EVQLVQSGAEVKKPGASVKVSCKASGYTFTSQYMHWVRQAPGQGLEWIGIINPSGVHTSYAQKFQGRVTLTRDTSTSTLYMELSSLRSEDTAVYYCARGSPKGAFDYWGQGTLVTVSS VL: not shown	binds	binds
